Test [1] concerns the target T1, commercially sourced Im7 linked to Sepharose (UniProt Q03708 1-87, linked to Sepharose resin).
T1 construct: also called Im7-Sepharose; Im7-agarose
T1 sequence: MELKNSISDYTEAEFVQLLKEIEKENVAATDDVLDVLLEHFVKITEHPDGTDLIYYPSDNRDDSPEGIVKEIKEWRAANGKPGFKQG
As to the kind of experiment: E. coli cytosol incubated with Im7-Sepharose, extensive washing, TEV release, SDS-PAGE.

The target in test [2] is T2, Human IL17RA protein (SinoBiological) (human, UniProt Q96F46 33-320).
T2 construct: Coated on ELISA plates at 0.25 ug/well; also called IL17RA receptor
T2 sequence (looked up): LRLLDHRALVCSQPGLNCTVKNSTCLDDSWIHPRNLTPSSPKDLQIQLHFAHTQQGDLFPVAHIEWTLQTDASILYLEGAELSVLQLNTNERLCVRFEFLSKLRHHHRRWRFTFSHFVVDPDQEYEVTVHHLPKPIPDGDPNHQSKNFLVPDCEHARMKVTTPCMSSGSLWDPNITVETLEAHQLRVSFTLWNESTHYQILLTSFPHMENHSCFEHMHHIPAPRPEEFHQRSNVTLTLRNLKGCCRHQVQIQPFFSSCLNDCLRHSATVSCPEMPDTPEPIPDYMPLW
As to the kind of experiment: receptor binding ELISA, IL17RA coated at 0.25 ug/well.

B1: ColE7-IL33 fusion (Colicin E7 catalytic domain, linker, TEV site, murine IL-33 C-terminal fragment) (other)
chain: ESKRNKPGKATGKGKPVNNKWLNNAGKDLGSPVPDRIANKLRDKEFKSFDDFRKKFWEEVSKDPELSKQFSRNNNDRMKVGKAPKTRTQDVSGKATSFALHHEKPISQNGGVYDMDNISVVTPKRAIDIHRGKSGGGSSGSGENLYFQGSSIQGTSLLTQSPASLSTYNDQSVSFVLENGCYVINVDKSGKDQEQDQVLLRYYKSPCPASQSGDGVDGKKLMVNMSPIKDTDIWLHANDKDYSVELQRGDVSPPEQAFFVLHKKSSDFVSFECKNLPGTYIGVKDNQLALVEEKDESCNNIMFKLSKI
notes: also called ColE7-1L33; ColicinE7-IL33
As to B1, the binding result in test [1] is “binds”.

B2: IL33 purified on Im7-Sepharose and released from ColE7 by TEV protease (ligand)
chain: GSSIQGTSLLTQSPASLSTYNDQSVSFVLENGCYVINVDKSGKDQEQDQVLLRYYKSPCPASQSGDGVDGKKLMVNMSPIKDTDIWLHANDKDYSVELQRGDVSPPEQAFFVLHKKSSDFVSFECKNLPGTYIGVKDNQLALVEEKDESCNNIMFKLSKI
Consider B2, for which, in test [2], the binding result is on record as “no binding”.

Source of the values: patent US20240093159A1 (UNIVERSITY OF DUNDEE, published 2024).
